Measured values: patent US20250025549A1 (NOVAVAX, published 2025)

Biological target: T1, human angiotensin-converting enzyme 2 precursor (hACE2), His-tagged (human, UniProt Q9BYF1 18-740)
T1 construct: also called His-tagged human ACE2; histidine-tagged hACE2
Test: bio-layer interferometry

T1 sequence (Q9BYF1 18-740 limits assumed): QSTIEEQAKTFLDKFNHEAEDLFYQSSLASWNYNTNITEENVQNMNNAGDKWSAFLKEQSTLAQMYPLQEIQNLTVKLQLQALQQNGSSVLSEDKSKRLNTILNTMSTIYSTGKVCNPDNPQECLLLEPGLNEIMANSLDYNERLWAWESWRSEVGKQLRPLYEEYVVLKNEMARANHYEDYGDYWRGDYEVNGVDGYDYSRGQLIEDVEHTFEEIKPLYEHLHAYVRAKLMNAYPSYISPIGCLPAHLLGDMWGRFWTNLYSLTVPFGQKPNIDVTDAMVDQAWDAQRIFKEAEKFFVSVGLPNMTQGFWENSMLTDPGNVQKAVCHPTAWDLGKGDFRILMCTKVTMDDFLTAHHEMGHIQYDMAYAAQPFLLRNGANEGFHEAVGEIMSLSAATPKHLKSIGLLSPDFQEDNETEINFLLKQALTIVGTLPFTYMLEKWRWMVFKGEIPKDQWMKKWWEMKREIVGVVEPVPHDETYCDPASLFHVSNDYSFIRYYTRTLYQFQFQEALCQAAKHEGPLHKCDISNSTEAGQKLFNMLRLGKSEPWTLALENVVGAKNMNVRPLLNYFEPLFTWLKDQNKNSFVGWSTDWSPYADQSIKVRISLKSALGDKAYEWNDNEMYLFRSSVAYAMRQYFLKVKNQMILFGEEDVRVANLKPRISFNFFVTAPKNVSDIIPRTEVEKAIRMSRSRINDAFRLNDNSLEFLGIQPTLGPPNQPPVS

B1: MERS S protein (other)
chain: YVDVGPDSVKSACIEVDIQQTFFDKTWPRPIDVSKADGIIYPQGRTYSNITITYQGLFPYQGDHGDMYVYSAGHATGTTPQKLFVANYSQDVKQFANGFVVRIGAAANSTGTVIISPSTSATIRKIYPAFMLGSSVGNFSDGKMGRFFNHTLVLLPDGCGTLLRAFYCILEPRSGNHCPAGNSYTSFATYHTPATDCSDGNYNRNASLNSFKEYFNLRNCTFMYTYNITEDEILEWFGITQTAQGVHLFSSRYVDLYGGNMFQFATLPVYDTIKYYSIIPHSIRSIQSDRKAWAAFYVYKLQPLTFLLDFSVDGYIRRAIDCGFNDLSQLHCSYESFDVESGVYSVSSFEAKPSGSVVEQAEGVECDFSPLLSGTPPQVYNFKRLVFTNCNYNLTKLLSLFSVNDFTCSQISPAAIASNCYSSLILDYFSYPLSMKSDLSVSSAGPISQFNYKQSFSNPTCLILATVPHNLTTITKPLKYSYINKCSRFLSDDRTEVPQLVNANQYSPCVSIVPSTVWEDGDYYRKQLSPLEGGGWLVASGSTVAMTEQLQMGFGITVQYGTDTNSVCPKLEFANDTKIASQLGNCVEYSLYGVSGRGVFQNCTAVGVRQQRFVYDAYQNLVGYYSDDGNYYCLRACVSVPVSVIYDKETKTHATLFGSVACEHISSTMSQYSRSTRSMLKRRDSTYGPLQTPVGCVLGLVNSSLFVEDCKLPLGQSLCALPDTPSTLTPRSVRSVPGEMRLASIAFNHPIQVDQLNSSYFKLSIPTNFSFGVTQEYIQTTIQKVTVDCKQYVCNGFQKCEQLLREYGQFCSKINQALHGANLRQDDSVRNLFASVKSSQSSPIIPGFGGDFNLTLLEPVSISTGSRSARSAIEDLLFDKVTIADPGYMQGYDDCMQQGPASARDLICAQYVAGYKVLPPLMDVNMEAAYTSSLLGSIAGVGWTAGLSSFAAIPFAQSIFYRLNGVGITQQVLSENQKLIANKFNQALGAMQTGFTTTNEAFHKVQDAVNNNAQALSKLASELSNTFGAISASIGDIIQRLDVLEQDAQIDRLINGRLTTLNAFVAQQLVRSESAALSAQLAKDKVNECVKAQSKRSGFCGQGTHIVSFVVNAPNGLYFMHVGYYPSNHIEVVSAYGLCDAANPTNCIAPVNGYFIKTNNTRIVDEWSYTGSSFYAPEPITSLNTKYVAPQVTYQNISTNLPPPLLGNSTGIDFQDELDEFFKNVSTSIPNFGSLTQINTTLLDLTYEMLSLQQVVKALNESYIDLKELGNYTYYNKWPWYIWLGFIAGLVALALCVFFILCCTGCGTNCMGKLKCNRCCDRYEEYDLEPHKVHVH
notes: also called MERS-CoV spike protein
binding result: no binding
